Results published in US20200347130A1 (JIANGSU HENGRUI MEDICINE, published 2020).
Changes are numbered by the printed parent chain. Blank lines part the entries; values can stand above or below the binder they belong to.

Assays:
[1] = target: T1, CD96 extracellular region with His tag (CD96-His) (human, UniProt P40200 22-519); test: blocking cell ELISA: antibody premixed with CD96 antigen (0.5 ug/mL), binding to fixed CD155-CHO cells
T1 construct: also called CD96-ECD-His; Bio-CD96-His (biotin-labelled form)
T1 sequence: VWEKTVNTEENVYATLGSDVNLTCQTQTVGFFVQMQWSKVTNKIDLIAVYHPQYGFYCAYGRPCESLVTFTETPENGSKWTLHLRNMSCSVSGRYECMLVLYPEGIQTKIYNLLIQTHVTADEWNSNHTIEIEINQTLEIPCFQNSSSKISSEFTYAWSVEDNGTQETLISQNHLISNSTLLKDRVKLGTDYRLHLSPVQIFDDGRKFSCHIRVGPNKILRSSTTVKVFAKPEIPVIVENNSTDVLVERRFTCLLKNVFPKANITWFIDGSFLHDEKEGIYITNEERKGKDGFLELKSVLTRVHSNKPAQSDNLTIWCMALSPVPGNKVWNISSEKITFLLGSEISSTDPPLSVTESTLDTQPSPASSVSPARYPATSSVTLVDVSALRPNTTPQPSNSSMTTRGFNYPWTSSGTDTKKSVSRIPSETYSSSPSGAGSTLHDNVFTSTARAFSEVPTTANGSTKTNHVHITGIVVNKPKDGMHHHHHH
Experimental: CD155-CHO cells (constructed by Shanghai Hengrui) were seeded in 96-well culture plates at a density of 9×10⁴/100 μL/well and cultured overnight. After aspirating the supernatant, the plate was washed once with PBS, 100 μl/well of immunostaining fixation solution (Biyuntian, Cat No. P0098) was added and fixed for one hour at room temperature, and the plate was washed three times with PBS. After discarding the liquid, 250 μl/well of 5% skim milk (BD, Cat No. 232100) blocking solution diluted with PBS was added, and the plate was blocked in an incubator at 37° C. for 2.5 hours. After blocking, the blocking solution was discarded, subsequently, the plate was washed 4 times with PBST buffer (pH 7.4 PBS containing 0.05% tween-20). 50 μl/well of antigen-antibody pre-incubation solution (gradient concentrations of the hybridoma antibody to be tested and CD96-Fc at a final concentration of 0.5 μg/mL were premixed at 37° C. for 30 minutes, or gradient concentrations of humanized antibody samples and Bio-CD96-His at a final concentration of 0.5 μg/mL were premixed at 37° C. for 30 minutes) (Biotin-labeled kit, Dongren Chemical, Cat No. LK03) was added, and the plate was incubated in an incubator at 37° C. for 2 hours. After incubation, the reaction solution in the microtiter plate was discarded, the plate was washed 4 times with PBST, and 50 μl/well of HRP-labeled goat anti-human secondary antibody (Jackson Immuno Research, Cat No. 109-035-003) diluted with sample dilution or HRP-labeled streptavidin diluted with sample dilution (Sigma, Cat No. 52438) was added, followed by incubating at 37° C. for 1 hour. After washing the plate 4 times with PBST, 50 μl/well of TMB chromogenic substrate (KPL, Cat No. 52-00-03) was added, the plate was incubated at room temperature for 10-20 minutes, followed by adding 50 μl/well of 1M H₂SO₄ to stop the reaction. The absorption value was read at 450 nm with a NOVOStar microplate reader, and the EC50 value of the effect of CD96 antibody on blocking the binding between the antigens and CD155-CHO cells was calculated (see FIG. 2 and Table 16).

[2] = target: T2, CD96 epitope peptide #5 (77-86) (human); test: peptide ELISA ('-' indicates no binding, table note)
T2 peptide: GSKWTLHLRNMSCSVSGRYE
Experimental: (§1) The epitopes recognized by anti-CD96 antibody were detected by the assay of binding the antibody to different polypeptide fragments of CD96 protein. The fragments of different polypeptides of the CD96 antigen were coated on the microtiter plate. The signal density after the antibody was added was used to judge the binding activity of the antibody and the polypeptide. The specific experimental method is as follows:
(§2) The polypeptides were diluted to a concentration of 20 μg/ml with PBS buffer (Shanghai Yuanpei Biotechnology Co., Ltd. Cat No. B320), pH 7.4, added to a 96-well microtiter plate (Corning, Cat No. CLS3590-100EA) at a volume of 50 μl/well, and coated at 4° C. overnight. After discarding the liquid, 250 μl/well of 5% skim milk (BD skim milk, Cat No. 232100) blocking solution diluted with PBS was added, and the plate was incubated in an incubator at 37° C. for 3 hours. After blocking, the blocking solution was discarded, and the plate was washed 5 times with PBST buffer (pH 7.4 PBS containing 0.05% tween-20). 50 μl/well of different concentrations of the antibodies to be tested (hybridoma purification antibody or humanized antibody) diluted with sample dilution was added, and the plate was incubated in an incubator at 37° C. for 2 hours. […] After washing the plate 5 times with PBST, 50 μl/well of TMB chromogenic substrate (KPL, Cat No. 52-00-03) was added, the plate was incubated at room temperature for 5-15 min, followed by adding 50 μl/well of 1M H₂SO₄ to stop the reaction. The absorption value was read at 450 nm with a microplate reader (Thermo Scientific MuLtiskan MK3), and the epitopes that CD96 antibody can recognize were analyzed.

[3] = target: T3, CD96 epitope peptide #6 (92-111) (human); test: as above
T3 peptide: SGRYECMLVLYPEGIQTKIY
Experimental: as §1, §2

[4] = target: T4, CD96 epitope peptide #12 (181-200) (human); test: as above
T4 peptide: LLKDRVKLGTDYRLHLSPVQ
Experimental: as §1, §2

[5] = target: T5, CD96 epitope peptide #16 (235-254) (human); test: as above
T5 peptide: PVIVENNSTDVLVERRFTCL
Experimental: as §1, §2

[6] = target: T6, CD96 epitope peptide #22 (325-344) (human); test: as above
T6 peptide: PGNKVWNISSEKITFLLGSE
Experimental: as §1, §2

[7] = target: T7, CD96 epitope peptide #1 (17-36) (human); test: peptide ELISA, peptide coated
T7 peptide: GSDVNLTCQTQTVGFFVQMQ
Experimental: as §1, §2

[8] = target: T2, CD96 epitope peptide #5 (77-86 as …); test: peptide ELISA, peptide coated
Experimental: as §1, §2

[9] = target: T8, CD96 epitope peptide #14 (211-230) (human); test: peptide ELISA, peptide coated
T8 peptide: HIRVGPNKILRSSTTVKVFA
Experimental: as §1, §2

[10] = target: T9, CD96 epitope peptide #17 (250-269) (human); test: peptide ELISA, peptide coated
T9 peptide: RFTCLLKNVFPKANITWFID
Experimental: as §1, §2

IC50 [1]: 159 pM
B1: ch1722 (antibody, human IgG4 S228P, kappa, V domains shown)
VH: QVQLQQPGAELVKPGTSVKLSCKASGNTFIDYWMHWVKQRPGQGLEWIGMLHPNSGTTSFNEKFKIKTTLTIDKSSSTAYMQLSSLTSEDSAIYYCASDYSGPFAYWGQGTLVTVSA
VL: QIVLTQSPGIMSAFPGEKVTMTCSASSSVNYIHWYQQKSGTSPKRWIFDTSKLASGVPARFSGSGSGTSYSLTISSMEAEDAATYYCQQWRSNPLTFGAGTKLELKR
notes: also called chi722; chimeric antibody corresponding to m1722

binding result [7]: binds
binding result [8]: binds
binding result [9]: binds
binding result [10]: binds
IC50 [1]: 214 pM
B3: ch1721 (antibody, human IgG4 S228P, kappa, V domains shown)
VH: QVQLKESGPGLVAPSQSLSITCTVSGFSLISYGVNWVRQPPGKGLEWLGVIWGDGSTNYHSALISRLSISKDDSKSQVFLNLNSLQTDDTATYYCAKNYFYGSRYGYAMDSWGQGISVTVSS
VL: DIQMTQSPASLSAAVGETVTITCRASENIYSSLAWYQQKQGKSPQLLVYNAKTLIETVASRFSGSGSGTQYSLKINSLQPEDFGSFYCQHHYGTPYTFGGGTKLEIKR
notes: also called chimeric antibody corresponding to m1721

binding result [7]: binds
binding result [8]: binds
binding result [9]: binds
binding result [10]: binds
IC50 [1]: 96 pM
B5: ch1718 (antibody, human IgG4 S228P, kappa, V domains shown)
VH: EFQLQQSGPELVKPGASVKISCKASAYSITDYNMNWVKQSNGKSLEWIGVINPSYGITDYNQNFKDKATLTVDQSSSTAYMQLNSLTSEDSAVYYCAIQLRLPGYFDVWGTGTTVIVSS
VL: DIKMTQSPSSMYASLGERVTITCKASQDINNYLNWFQQKPGKSPKTLIYRANRLVDGVPSRFSGSGSGQDYSLTISSLEYEDMGIYYCLKYDEFPYTFGGGTKVEIKR
notes: also called chimeric antibody corresponding to m1718

Further lines, the binder ahead of its results:

B2: ch1719 (antibody, human IgG4 S228P, kappa, V domains shown)
VH: B3 VH with N35S, S56N, A62V, S70R, N81K, Y99N, F100Y, A108P, S111Y, I116T
VL: DIVMTQSHKFMSTSVGDRVSITCKATQDVGTAVAWYQQKPGHSPKLLIYWASTRHTGVPERFTGSGSGTDFTLTIDNVQSEDLADYFCQQYGSSVLTFGAGTKVELRR
notes: also called chimeric antibody corresponding to m1719
binding result [2]: no binding
binding result [3]: no binding
binding result [4]: no binding
binding result [5]: no binding
binding result [6]: no binding
IC50 [1]: 137 pM

B4: ch1720 (antibody, human IgG4 S228P, kappa, V domains shown)
VH: B5 VH with I29L, T58S, D59S, N63K, D66G, Q82H, I98R, I116T
VL: B5 VL with M11K, Y12N, N31S, N52S, V104L
notes: also called chimeric antibody corresponding to m1720
binding result [2]: no binding
binding result [3]: no binding
binding result [4]: no binding
binding result [5]: no binding
binding result [6]: no binding
IC50 [1]: 149 pM
